Measured values reported in patent US20180251489A1.
pKi: −log10 of the molar value.

What follows are substances tested against mucosa-associated lymphoid tissue lymphoma translocation protein 1 (UniProt Q9UDY8) (assay: enzyme inhibition assay, 100 nM MALT1).
Chain of mucosa-associated lymphoid tissue lymphoma translocation protein 1 (Q9UDY8 340-789): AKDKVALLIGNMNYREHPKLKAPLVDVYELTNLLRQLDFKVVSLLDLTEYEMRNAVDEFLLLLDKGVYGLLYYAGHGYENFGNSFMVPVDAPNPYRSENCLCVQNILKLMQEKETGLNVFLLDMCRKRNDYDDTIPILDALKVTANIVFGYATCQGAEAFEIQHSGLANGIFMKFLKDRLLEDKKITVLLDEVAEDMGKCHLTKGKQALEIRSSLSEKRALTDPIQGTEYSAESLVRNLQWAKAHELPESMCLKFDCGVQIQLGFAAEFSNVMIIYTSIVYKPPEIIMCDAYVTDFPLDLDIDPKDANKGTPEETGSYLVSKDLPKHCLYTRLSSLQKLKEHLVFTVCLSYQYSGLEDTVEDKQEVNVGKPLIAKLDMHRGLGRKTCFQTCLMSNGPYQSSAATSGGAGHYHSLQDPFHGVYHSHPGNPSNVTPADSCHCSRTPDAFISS

Substance | pKi
(S)-1-((S)-2-(4-Bromobenzamido)-3-cyclohexylpropanoyl)-N-((S)-1-fluoro-6-guanidino-2-oxohexan-3-yl)pyrrolidine-2-carboxamide (peptide) | 6.91
(S)-1-((S)-2-(4-bromobenzamido)-2-cyclohexylacetyl)-N-((S)-1-fluoro-6-guanidino-2-oxohexan-3-yl)pyrrolidine-2-carboxamide (peptide) | 7.35
(S)-1-(([1,1′-biphenyl]-4-carbonyl)-L-valyl)-N-((S)-1-fluoro-6-guanidino-2-oxohexan-3-yl)pyrrolidine-2-carboxamide (peptide) | 7.52
(S)-1-(Benzoyl-L-valyl)-N-((S)-1-fluoro-6-guanidino-2-oxohexan-3-yl)pyrrolidine-2-carboxamide (peptide) | 7.40
(S)-1-(cinnamoyl-L-valyl)-N-((S)-1-fluoro-6-guanidino-2-oxohexan-3-yl)pyrrolidine-2-carboxamide (peptide) | 7.44
(S)-3-((4-Bromobenzoyl)-L-valyl)-N-((S)-1-fluoro-6-guanidino-2-oxohexan-3-yl)oxazolidine-4-carboxamide (peptide) | 7.70
(S)-4-((4-Bromobenzoyl)-L-valyl)-N-((S)-1-fluoro-6-guanidino-2-oxohexan-3-yl)morpholine-3-carboxamide (peptide) | 7.15
(S)-N-((R)-1-Fluoro-6-guanidino-2-oxohexan-3-yl)-1-((4-fluorobenzoyl)-L-valyl)pyrrolidine-2-carboxamide (peptide) | 6.46
(S)-N-((S)-1-Fluoro-6-guanidino-2-oxohexan-3-yl)-1-((2-methoxybenzoyl)-L-valyl)pyrrolidine-2-carboxamide (peptide) | 6.96
(S)-N-((S)-1-Fluoro-6-guanidino-2-oxohexan-3-yl)-1-((2-phenylacetyl)-L-valyl)pyrrolidine-2-carboxamide (peptide) | 7.38
(S)-N-((S)-1-Fluoro-6-guanidino-2-oxohexan-3-yl)-1-((3-methoxybenzoyl)-L-valyl)pyrrolidine-2-carboxamide (peptide) | 7.12
(S)-N-((S)-1-Fluoro-6-guanidino-2-oxohexan-3-yl)-1-((3-phenylpropanoyl)-L-valyl)pyrrolidine-2-carboxamide (peptide) | 7.37
(S)-N-((S)-1-Fluoro-6-guanidino-2-oxohexan-3-yl)-1-((4-fluorobenzoyl)-L-valyl)pyrrolidine-2-carboxamide (peptide) | 7.89
(S)-N-((S)-1-Fluoro-6-guanidino-2-oxohexan-3-yl)-1-((4-isopropylbenzoyl)-L-valyl)pyrrolidine-2-carboxamide (peptide) | 7.66
(S)-N-((S)-1-Fluoro-6-guanidino-2-oxohexan-3-yl)-1-((4-methoxybenzoyl)-L-valyl)pyrrolidine-2-carboxamide (peptide) | 7.30
(S)-N-((S)-1-Fluoro-6-guanidino-2-oxohexan-3-yl)-1-((4-morpholinobenzoyl)-L-valyl)pyrrolidine-2-carboxamide (peptide) | 7.12
(S)-N-((S)-1-Fluoro-6-guanidino-2-oxohexan-3-yl)-1-((phenylcarbamoyl)-L-valyl)pyrrolidine-2-carboxamide (peptide) | 7.28

Substance | pKi
(S)-N-((S)-1-fluoro-6-guanidino-2-oxohexan-3-yl)-1-((3-(4-methylpiperazin-1-yl)benzoyl)-L-valyl)pyrrolidine-2-carboxamide (peptide) | 6.76
(S)-N-((S)-1-fluoro-6-guanidino-2-oxohexan-3-yl)-1-((3-(trifluoromethoxy)benzoyl)-L-valyl)pyrrolidine-2-carboxamide (peptide) | 7.82
(S)-N-((S)-1-fluoro-6-guanidino-2-oxohexan-3-yl)-1-((3-morpholinobenzoyl)-L-valyl)pyrrolidine-2-carboxamide (peptide) | 7.24
(S)-N-((S)-1-fluoro-6-guanidino-2-oxohexan-3-yl)-1-((4-(trifluoromethoxy)benzoyl)-L-valyl)pyrrolidine-2-carboxamide (peptide) | 7.57
(S)-N-((S)-1-fluoro-6-guanidino-2-oxohexan-3-yl)-1-((4-(trifluoromethyl)benzoyl)-L-valyl)pyrrolidine-2-carboxamide (peptide) | 6.88
Benzyl (1-((S)-2-(((S)-1-fluoro-6-guanidino-2-oxohexan-3-yl)carbamoyl)pyrrolidine-1-carbonyl)cyclopentyl)carbamate (peptide) | 5.93
Benzyl ((2S,3R)-1-((S)-2-(((S)-1-fluoro-6-guanidino-2-oxohexan-3-yl)carbamoyl)pyrrolidin-1-yl)-3-methyl-1-oxopentan-2-yl)carbamate (peptide) | 7.52
Benzyl ((R)-2-((S)-2-(((S)-1-fluoro-6-guanidino-2-oxohexan-3-yl)carbamoyl)pyrrolidin-1-yl)-2-oxo-1-(pyridin-3-yl)ethyl)carbamate (peptide) | 6.84
Benzyl ((S)-1-((2S,4R)-2-(((S)-1-fluoro-6-guanidino-2-oxohexan-3-yl)carbamoyl)-4-hydroxypyrrolidin-1-yl)-3-methyl-1-oxobutan-2-yl)carbamate (peptide) | 7.28
Benzyl ((S)-1-((2S,4S)-2-(((S)-1-fluoro-6-guanidino-2-oxohexan-3-yl)carbamoyl)-4-hydroxypyrrolidin-1-yl)-3-methyl-1-oxobutan-2-yl)carbamate (peptide) | 7.31
Benzyl ((S)-1-((S)-2-(((S)-1-fluoro-6-guanidino-2-oxohexan-3-yl)carbamoyl)-2-methylpyrrolidin-1-yl)-3-methyl-1-oxobutan-2-yl)carbamate (peptide) | 6.80
Benzyl ((S)-1-((S)-2-(((S)-1-fluoro-6-guanidino-2-oxohexan-3-yl)carbamoyl)piperidin-l-yl)-3-methyl-1-oxobutan-2-yl)carbamate (peptide) | 7.40
Benzyl ((S)-1-((S)-2-(((S)-1-fluoro-6-guanidino-2-oxohexan-3-yl)carbamoyl)pyrrolidin-1-yl)-1-oxo-3-phenylpropan-2-yl)carbamate (peptide) | 7.12
Benzyl ((S)-1-((S)-2-(((S)-1-fluoro-6-guanidino-2-oxohexan-3-yl)carbamoyl)pyrrolidin-1-yl)-3,3-dimethyl-1-oxobutan-2-yl)carbamate (peptide) | 7.37
Benzyl ((S)-1-((S)-2-(((S)-1-fluoro-6-guanidino-2-oxohexan-3-yl)carbamoyl)pyrrolidin-1-yl)-3-methyl-1-oxobutan-2-yl)(methyl)carbamate (peptide) | 6.09
Benzyl ((S)-1-((S)-2-(((S)-1-fluoro-6-guanidino-2-oxohexan-3-yl)carbamoyl)pyrrolidin-1-yl)-3-methyl-1-oxobutan-2-yl)carbamate 2,2,2-trifluoroacetate (peptide) | 7.40
Benzyl ((S)-1-((S)-2-(((S)-1-fluoro-6-guanidino-2-oxohexan-3-yl)carbamoyl)pyrrolidin-1-yl)-4-methyl-1-oxopentan-2-yl)carbamate (peptide) | 7.03
